Measurements as given in US20160333110A1 (CHIOME BIOSCIENCE, published 2016).

T1: recombinant protein of the hTROP-2 extracellular region (human, UniProt P09758 27-263)
T1 construct: produced with baculovirus, purified on Ni Sepharose; also called hTROP-2 EC; hTROP-2-EC-His; not shown: C-terminal myc-His tag from pcDNA4/myc-His A
T1 sequence: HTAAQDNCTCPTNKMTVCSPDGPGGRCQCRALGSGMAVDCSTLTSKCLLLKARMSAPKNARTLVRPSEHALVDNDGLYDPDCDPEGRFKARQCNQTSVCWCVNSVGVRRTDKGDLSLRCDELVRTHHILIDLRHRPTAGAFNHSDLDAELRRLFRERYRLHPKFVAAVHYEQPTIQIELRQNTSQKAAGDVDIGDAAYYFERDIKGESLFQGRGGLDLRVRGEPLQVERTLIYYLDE

T2: recombinant hTACSTD2-Fc-His protein (Creative BioMart) (human, UniProt P09758 27-274, limits assumed)
T2 construct: bought protein; also called hTROP-2 (low-density antigen-coated ELISA); not shown: Fc part of the bought fusion protein; not described; His tag
T2 sequence: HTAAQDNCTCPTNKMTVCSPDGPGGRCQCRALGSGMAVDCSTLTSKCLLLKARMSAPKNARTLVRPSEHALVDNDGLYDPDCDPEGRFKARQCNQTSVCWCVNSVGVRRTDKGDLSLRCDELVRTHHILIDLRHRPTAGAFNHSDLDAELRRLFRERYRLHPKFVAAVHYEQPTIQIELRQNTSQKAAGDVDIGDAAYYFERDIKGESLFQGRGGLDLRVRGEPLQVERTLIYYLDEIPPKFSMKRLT

T3: human TROP-2 (hTROP-2) endogenously expressed on the cell surface of human cancer cell lines (human, UniProt P09758 27-323)
T3 construct: also called TACSTD2; PK-59 cells
T3 sequence: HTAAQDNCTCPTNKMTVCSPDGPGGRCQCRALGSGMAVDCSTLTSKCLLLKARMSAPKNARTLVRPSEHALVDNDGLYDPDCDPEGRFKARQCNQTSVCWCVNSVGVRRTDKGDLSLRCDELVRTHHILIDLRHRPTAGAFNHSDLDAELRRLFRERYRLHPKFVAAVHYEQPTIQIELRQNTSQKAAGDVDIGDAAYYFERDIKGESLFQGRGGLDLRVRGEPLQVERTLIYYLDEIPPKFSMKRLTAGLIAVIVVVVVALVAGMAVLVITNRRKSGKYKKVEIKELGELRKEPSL

T4: human TROP-1/EpCAM protein transiently expressed in CHO-K1 cells (human, UniProt P16422 24-314)
T4 construct: whole, on cells; also called human EpCAM/TROP-1; hEpCAM; not shown: C-terminal myc/His tag from pcDNA3.1-hEpCAM-myc/His
T4 sequence (looked up): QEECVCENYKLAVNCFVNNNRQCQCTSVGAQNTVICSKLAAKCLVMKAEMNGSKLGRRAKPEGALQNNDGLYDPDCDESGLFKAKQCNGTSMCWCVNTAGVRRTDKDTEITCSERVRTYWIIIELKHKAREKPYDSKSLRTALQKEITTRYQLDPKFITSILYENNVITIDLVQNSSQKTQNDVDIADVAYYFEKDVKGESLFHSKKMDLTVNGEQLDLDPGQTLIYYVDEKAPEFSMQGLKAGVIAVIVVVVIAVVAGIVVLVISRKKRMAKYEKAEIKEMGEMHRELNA

T5: mouse TROP-2 protein transiently expressed in CHO-K1 cells (mouse, UniProt Q8BGV3 25-317)
T5 construct: whole, on cells
T5 sequence (looked up): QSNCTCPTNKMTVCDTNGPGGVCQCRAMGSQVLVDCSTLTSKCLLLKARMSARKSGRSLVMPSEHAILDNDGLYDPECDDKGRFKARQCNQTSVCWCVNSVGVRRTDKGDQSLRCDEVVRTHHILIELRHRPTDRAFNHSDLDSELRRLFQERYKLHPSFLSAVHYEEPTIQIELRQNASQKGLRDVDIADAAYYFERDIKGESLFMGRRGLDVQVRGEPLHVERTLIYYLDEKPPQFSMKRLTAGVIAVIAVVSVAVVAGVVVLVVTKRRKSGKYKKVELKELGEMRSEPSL


Assays:
[1] = target: T1, recombinant protein of the hTROP-2 …; assay: antigen-coated ELISA, plate coated with 0.5 µg/ml hTROP-2 extracellular region
Experimental: (§1) Furthermore, antigen affinity was also examined by an ELISA method. ELISA was carried out using an ELISA plate which was coated with the recombinant protein of the hTROP-2 extracellular region as described in Example 3. Specifically, a 96-well plate (BD FALCON) was coated with a 50 μl/well recombinant protein of a hTROP-2 extracellular region that had been diluted with PBS to 0.5 μg/ml (at 4° C. overnight). Thereafter, the resultant was washed with a washing buffer (PBS containing 0.05% Tween 20), and a blocking buffer (PBS containing 2% skim milk and 0.05% Tween 20) was then added thereto (200 μl/well) to block it (at room temperature for 1 hour). The resultant was washed with a washing buffer. […] The obtained dilution samples were each added in an amount of 50 μl/well to the above-described ELISA plate (at room temperature for 2 hours). […] After the mixture had been washed with a washing buffer, a TMB (3,3′,5,5′-tetramethylbenzidine: SIGMA) substrate solution was added (50 μl/well) to the resultant to carry out a color reaction. Then, 1 M sulfuric acid (25 μl/well) was added to the reaction product to terminate the reaction. Using Microplate reader Model 550 (BioRad), an absorbance at 450 nm was measured with an absorbance at 655 nm used as a reference.

[2] = target: T2, recombinant hTACSTD2-Fc-His protein …; assay: low-density antigen-coated ELISA, plate coated with 0.1 µg/mL hTACSTD2-Fc-His
Experimental: as §1, with “Specifically, a 96-well plate (BD FALCON) was coated with a 50 μl/well recombinant protein of a hTROP-2 extracellular region that had been diluted with PBS to 0.5 μg/ml (at 4° C. overnight).” left out

[3] = target: T1, recombinant protein of the hTROP-2 …; assay: monovalent ELISA: antibody captured by anti-human IgG Fc, hTROP-2 EC titrated in solution, detected with anti-His
Experimental: Thereafter, coating was carried out at 4° C. overnight. Thereafter, the reaction product was washed with a washing buffer (PBS containing 0.05% Tween 20), and a blocking buffer (PBS containing 2% skim milk and 0.05% Tween 20) was then added thereto (200 μL/well) to block it (at room temperature for 1 hour). The resultant was washed with a washing buffer. […] The mixture was left at rest at room temperature for 1 hour, and the reaction product was then washed with a washing buffer. The recombinant protein of the hTROP-2 extracellular region described in Example 3 (hTROP-2 EC) was diluted with an ELISA buffer to prepare samples with a concentration range from 5 μg/mL to a series of three-fold dilutions (10 samples). The thus obtained sample was added in each amount of 50 μL/well to the plate. The mixture was left at rest at room temperature for 1 hour, and the reaction product was then washed with a washing buffer. […] The obtained mixture was left at rest at room temperature for 1 hour, and it was then washed with a washing buffer. […] The obtained mixture was left at rest at room temperature for 1 hour, and it was then washed with a washing buffer. […] Using Microplate reader Model 550 (BioRad), an absorbance at 450 nm was measured with an absorbance at 655 nm used as a reference.

[4] = target: T2, recombinant hTACSTD2-Fc-His protein …; assay: low-density antigen-coated ELISA, plate coated with 0.1 µg/mL hTACSTD2-Fc-His, purified antibodies; HuK5-70 (humanized antibody); low-density ELISA, 0.1 µg/mL hTROP-2 coat
[5] = target: T3, human TROP-2 (hTROP-2) endogenously …; assay: FACS on BxPC-3 cells, 0.1 µg antibody
Experimental: (§2) Cancer cells were removed from a culture dish by a trypsin treatment, and a cell suspension was then prepared (cell density: 2×10⁶ cells/mL). An anti-hTROP-2 monoclonal antibody (0.1 μg) was added to 100 μL of the cell suspension, and they were then reacted at 4° C. for 20 minutes. The reaction solution was washed with PBS, and it was then reacted with PE-labeled anti-mouse IgG (BD Biosciences Pharmingen) (0.1 μg) (at 4° C. for 30 minutes). Thereafter, the resultant was analyzed by FACSCalibur (Becton, Dickinson and Company).
(§3) Subsequently, the reactivity of the generated anti-hTROP-2 monoclonal antibodies with human cancer cell lines (in which an hTROP-2 protein was endogenously expressed on the cell surface) was examined by FACS analysis.

[6] = target: T4, human TROP-1/EpCAM protein transiently …; assay: FACS on CHO-K1 cells transiently expressing human EpCAM/TROP-1
Excerpt: (§4) Specifically, each of an expression vector (mouse TROP-2-pcDNA3.1(+), furnished by the Institute of Molecular and Cellular Biosciences, the University of Tokyo) comprising the full-length cDNA of a mouse TROP-2 gene (GenBank accession No. NM_020047, Y08830), and an expression vector (pcDNA3.1-hEpCAM-myc/His) comprising the full-length cDNA of a human TROP-1/EpCAM gene (GenBank accession No. NM_002354), was transiently introduced into CHO-K1 cells, using Lipofectamine2000 reagent (Invitrogen). Thereafter, 24 to 48 hours later, the cells were removed from a culture dish by treating them with trypsin, and a cell suspension was then prepared. The thus prepared cell suspension was successively reacted with the produced anti-hTROP-2 monoclonal antibody (0.1 μg) and with PE-labeled anti-mouse IgG, and it was then analyzed by FACSCalibur.

[7] = target: T5, mouse TROP-2 protein transiently …; assay: FACS on CHO-K1 cells transiently expressing mouse TROP-2
Excerpt: as §4

[8] = target: T3, human TROP-2 (hTROP-2) endogenously …; assay: FACS on PK-59 cells, 0.1 µg antibody
Experimental: as §2, §3

Row | Binder | EC50 [1] [µg/mL] | EC50 [2] [µg/mL] | binding result [6] | binding result [7] | also measured
1 | humanized T6-16 antibody HuT6-16-1 (antibody, V domains shown, HuT6-16 VH1 with HuT6-16 VL; also called HuT6-16-1 antibody) VH: QVQLVQSGAEVKKPGASVKVSCKASGYTFTDYNMHWVRQAPGQGLEWIGYIYPYNGGTGYNQRFKSRATMTVDKSTSTAYMELRSLRSDDTAVYYCAREDYGSSPSYAMDYWGQGTMVTVSS VL: DIVMTQSPLSLPVTPGEPASISCRSSQSLVHGNGNTYLHWYLQKPGQSPQLLIYKVSNRFSGVPDRFSGSGSGTDFTLKISRVEAEDVGVYYCSQTTHVPTFGGGTKVEIK | 0.027 | – | – | – | –
2 | humanized K5-70 antibody (HuK5-70) (antibody, V domains shown, human IgG1 / human kappa constant regions from the vectors pFUSE-CHIg-hG1 and pFUSE2-CLIg-hk; also called HuK5-70 antibody) VH: QVQLVQSGAEVKKPGASVKVSCKASGYTFTIYWINWVRQAPGQRLEWIGNIYPSDSYTNYNQKFKDKATLTVDTSASTAYMELSSLRSEDTAVYYCTRTSMADYWGQGTLVTVSS VL: EIVLTQSPATLSLSPGERATLSCRASQSIGTSIHWYQQKPGQAPRLLIKYASESISGIPARFSGSGSGTDFTLTISSLEPEDFAVYYCQQSNSWPFTFGQGTKVEIK | 0.022 | 0.222 | – | – | EC50 [3]: 0.006 µg/mL; EC50 relative to that of the K5-70 antibody [2]: ~20 times; EC50 [4]: 0.0334 µg/mL
3 | anti-hTROP-2 monoclonal antibody clone K5-116-2-1 (antibody, mouse IgG2a, V domains shown, mouse IgG2a, hybridoma FERM BP-11253) VH: QVQLQQPGAELVRPGASVKLSCKASGYTFTSYWITWVKQRPGQGLEWIGNIYPSDSYTNYNQKFRDKATLTVDKSSSTAYMQLSSPTSEDSAVYYCSALFDYWGQGTTLTVSS VL: DILLTQSPAILSVSPGERVSFSCRASQSIGTSIHWYQQRTNGSPRLLIKYASESISGIPSRFSGSGSGTDFILSINSVESEDIADYYCQQSNSWPFTFGSGTKLEIK | – | – | no binding (tested: 0.1 µg antibody) | no binding (tested: 0.1 µg antibody) | mean fluorescence intensity, times that with PE-labeled anti-mouse IgG alone [5]: 121 times; mean fluorescence intensity, times that with PE-labeled anti-mouse IgG alone [8]: 122 times

Now from value to binder, other results behind:

Row | EC50 [1] [µg/mL] | EC50 [2] [µg/mL] | binding result [6] | binding result [7] | Binder | also measured
4 | 0.027 | 0.049 | – | – | humanized T6-16 antibody HuT6-16-2 (antibody, V domains shown, HuT6-16 VH2 with HuT6-16 VL; also called HuT6-16-2 antibody) VH: QVQLVQSGAEVKKPGASVKVSCKASGYTFTDYNMHWVRQAPGQGLEWIGYIYPYNGGTGYNQRFKSRATMTVDTSTSTAYMELRSLRSDDTAVYYCAREDYGSSPSYAMDYWGQGTMVTVSS VL: DIVMTQSPLSLPVTPGEPASISCRSSQSLVHGNGNTYLHWYLQKPGQSPQLLIYKVSNRFSGVPDRFSGSGSGTDFTLKISRVEAEDVGVYYCSQTTHVPTFGGGTKVEIK | –
5 | – | – | no binding (tested: 0.1 µg antibody) | no binding (tested: 0.1 µg antibody) | anti-hTROP-2 monoclonal antibody clone K5-107 (antibody, mouse IgG1, V domains shown, mouse IgG1, hybridoma FERM BP-11252) VH: QVQLQQPGSELVRPGASVKLSCKASGYTFTSYWMHWVKQRHGQGLEWIGNIYPGGGYTNYDEKFKSKGTLTVDTSSSTAYMHLSSLTSEDSAVYYCTRSSVFDYWGQGTTLTVSS VL: DILLTQSPAILSVSPGERVSFSCRASQNIGTSIHWFQQRTNGSPRLLIKYASESISGIPSRFSGSGSGTDFTLSINSVESEDIADYYCQQSNSWPFTFGSGTKLEIK | –
